The target in data set [1] is Cys145 (UniProt position 3385, FLNGSCGSVGF). Kind of data set: chemical modification. The following applies: cited from earlier work.
The target of data set [2] is T1, Cys145 (UniProt position 3408, FLNGSCGSVGF). Kind of data set: chemical modification. The following applies: preincubation with IAM on ice; residual activity assayed at 25 °C (Table 1 footnote says 25 °C); 150 mM NaCl in constant-ionic-strength mixed buffers; free enzyme (apo), 2 µM.
For data set [3], the target named is T2, His41 (UniProt position 3304, VYCPRHVICTS). Kind of data set: chemical modification. The note with it: preincubation with DEPC on ice for 10-60 s; residual activity assay temperature per Table 1 footnote 25 °C; 150 mM NaCl in constant-ionic-strength mixed buffers; free enzyme (apo), 2 µM.
Data set [4] deals with T1, Cys145. Kind of data set: kinetics. The following applies: 150 mM NaCl in constant-ionic-strength mixed buffers.
Data set [5] has as its target T2, His41. Kind of data set: kinetics. The note with it: 150 mM NaCl in constant-ionic-strength mixed buffers.
The mark [6] stands for this setting: 25 °C (Table 1 footnote), apo (free) enzyme.
Where [7] appears, read: 25 °C, free enzyme (kcat/Ka reports on free enzyme and free substrate).
[8] abbreviates: 25 °C, free enzyme binding the inhibitor.

As usually defined, the pKa is the negative logarithm of the acid dissociation constant. For “3-chymotrypsin-like protease (3CLpro, Main protease, nsp5) (Severe acute respiratory syndrome coronavirus (SARS-CoV))”, in the data set with Cys145 [1], the pKa is reported as 7.8 ± 0.1.

In the case of “3-chymotrypsin-like protease (3CL-PR; Main protease, Mpro, nsp5) (Severe acute respiratory syndrome coronavirus 2 (SARS-CoV-2))”, the pKa stood at 7.8 ± 0.1 with Cys145 [2]; 6.05 ± 0.07 in the data set with His41 [3]; 8.2 ± 0.4 with Cys145 [4] (setting [6]); 8.39 ± 0.07 in the data set with Cys145 [4] (setting [7]); 8.5 ± 0.1 with Cys145 [4] (setting [8]); 9.06 ± 0.06 with Cys145 [4] (25 °C, free enzyme in D2O). For the same substance, the pKa with His41 [5] (setting [6]) turned out to be 6.2 ± 0.3; with His41 [5] (setting [7]) it was 5.9 ± 0.1; with His41 [5] (setting [8]), 6.5 ± 0.2; with His41 [5] (25 °C, free enzyme in D2O), 6.10 ± 0.07.
